{
  "source": "patent US20110124006A1",
  "about": "“METHOD FOR SCREENING OF THERAPEUTIC AGENT FOR CANCER” (Hismitsu Pharmaceutical Co., Inc., priority 2008, published 2011)",
  "molecules": {"B1": {"name": "epidermal growth factor (protein, UniProt P01133 23-1207, looked up)", "Pro-epidermal growth factor": "PQHWSCPEGTLAGNGNSTCVGPAPFLIFSHGNSIFRIDTEGTNYEQLVVDAGVSVIMDFHYNEKRIYWVDLERQLLQRVFLNGSRQERVCNIEKNVSGMAINWINEEVIWSNQQEGIITVTDMKGNNSHILLSALKYPANVAVDPVERFIFWSSEVAGSLYRADLDGVGVKALLETSEKITAVSLDVLDKRLFWIQYNREGSNSLICSCDYDGGSVHISKHPTQHNLFAMSLFGDRIFYSTWKMKTIWIANKHTGKDMVRINLHSSFVPLGELKVVHPLAQPKAEDDTWEPEQKLCKLRKGNCSSTVCGQDLQSHLCMCAEGYALSRDRKYCEDVNECAFWNHGCTLGCKNTPGSYYCTCPVGFVLLPDGKRCHQLVSCPRNVSECSHDCVLTSEGPLCFCPEGSVLERDGKTCSGCSSPDNGGCSQLCVPLSPVSWECDCFPGYDLQLDEKSCAASGPQPFLLFANSQDIRHMHFDGTDYGTLLSQQMGMVYALDHDPVENKIYFAHTALKWIERANMDGSQRERLIEEGVDVPEGLAVDWIGRRFYWTDRGKSLIGRSDLNGKRSKIITKENISQPRGIAVHPMAKRLFWTDTGINPRIESSSLQGLGRLVIASSDLIWPSGITIDFLTDKLYWCDAKQSVIEMANLDGSKRRRLTQNDVGHPFAVAVFEDYVWFSDWAMPSVMRVNKRTGKDRVRLQGSMLKPSSLVVVHPLAKPGADPCLYQNGGCEHICKKRLGTAWCSCREGFMKASDGKTCLALDGHQLLAGGEVDLKNQVTPLDILSKTRVSEDNITESQHMLVAEIMVSDQDDCAPVGCSMYARCISEGEDATCQCLKGFAGDGKLCSDIDECEMGVPVCPPASSKCINTEGGYVCRCSEGYQGDGIHCLDIDECQLGEHSCGENASCTNTEGGYTCMCAGRLSEPGLICPDSTPPPHLREDDHHYSVRNSDSECPLSHDGYCLHDGVCMYIEALDKYACNCVVGYIGERCQYRDLKWWELRHAGHGQQQKVIVVAVCVVVLVMLLLLSLWGAHYYRTQKLLSKNPKNPYEESSRDVRSRRPADTEDGMSSCPQPWFVVIKEHQDLKNGGQPVAGEDGQAADGSMQPTSWRQEPQLCGMGTEQGCWIPVSSDKGSCPQVMERSFHMPSYGTQTLEGGVEKPHSLLSANPLWQQRALDPPHQMELTQ", "modifications": "Pro-epidermal growth factor", "notes": "epidermal growth factor, purchased from Sigma"}},
  "key": {"[1]": {"system": "SK-N-BE cells, NLF cells, SH-SY5Y cells, SMS-SAN cells", "test": "MTT assay, EGF-induced proliferation of neuroblastoma-derived cells", "assay_type": "cell-based", "conditions": "SK-N-BE, NLF, SH-SY5Y, SMS-SAN cells, 10 ng/ml EGF", "protocol": "SK-N-BE cells, NLF cells, SH-SY5Y cells, SMS-SAN cells, which are cell lines derived from neuroblastoma, and SK-N-BE cells into which siRNA against NLRR1 was introduced were cultured in the presence and absence of 10 ng/ml EGF, and the cell proliferation was quantified by the MTT assay over time. FIG. 28 is a graph showing the cell proliferation, showing the change fold ratio of the proliferation of cells in the presence of EGF to the proliferation of cells in the absence of EGF."}, "MYCN expression": {"system": "MYCN expression", "test": "Immunoblot of MYCN expression in SK-N-BE cells treated with EGF", "assay_type": "cell-based", "protocol": "A neuroblastoma cell line SK-N-BE was cultured for 10 hours in media containing EGF at a variety of concentrations, by using an anti-phosphorylated EGFR antibody, an anti-EGFR antibody, an anti-MYCN antibody and an anti-actin antibody, the phosphorylation of an EGF receptor and the expression of MYCN were analyzed by an immunoblot method. FIG. 19 is a photograph showing a result of immunoblot. […] FIG. 20 is a photograph in which SK-N-BE cells were cultured in a medium containing 10 ng/ml EGF for different periods of time and the expression of MYCN was analyzed by an immunoblot method using an anti-MYCN antibody and an anti-actin antibody. […] From the above-mentioned results, it is thought that the following positive feed-back mechanism is present. That is to say, by EGF treatment, an EGFR signal is activated and the expression of MYCN is promoted. Next, by MYCN, transcription of NLRR1 is promoted. Next, the expression of NLRR1 is increased and activated. Next, by NLRR1, an EGFR signal is activated. Next, the expression of MYCN is further promoted."}},
  "data": [
    {"molecule": "B1", "values": [
      {"measurement": "proliferation of cells (MTT assay, fold ratio with vs without EGF)", "setting": "[1]", "result": "the proliferation of cells derived from neuroblastoma is promoted"},
      {"measurement": "expression of MYCN (immunoblot), time course", "setting": "MYCN expression; 10 ng/ml EGF, different periods of time", "result": "Increased expression of MYCN by EGF over time"},
      {"measurement": "expression of MYCN (immunoblot), EGF concentration dependence", "setting": "MYCN expression; 10 hours, EGF at a variety of concentrations", "result": "the expression of MYCN is increased depending upon the concentration of EGF"}
    ]}
  ]
}
